B1: HDV Ribozyme (parent)
chain: GGCCGGCAUGGUCCCAGCCUCCUCGCUGGCGCCGGCUGGGCAACAUUCCGAGGGGACCGUCCCCUCGGUAAUGGCGAAUGGGACCCA

The variants in the data set derive from B1. Kind of data set: self-cleavage, relative activity (ratio to wild type); higher = more cleavage; co-transcriptional.
In the case of GGCCGGCAUGGUCCCAGCCUCCUCGCUGGCGCCGGCUGGGGAACAUUCCGAGGGGACCGUCCCCUCGGUAAUGGCGAAUGGGAGCCA, the self-cleavage is 0.665. For the variant GGCCGGCAUGGUCCCAGCCUCCUCGCUGGCGCCGGCUGGGGAACAUUCCGAGGGGACCGUCCCCUCGGUAAUGGCGAAUGGGAACCA, the self-cleavage came out at 0.508.

Take GGCCGGCAUGGUCCCAGCCUCCUCGCUGGCGCCGGCUGGGGAACAUUCCGAGGGGACCGUCCCCUCGGUAAUGGCGAAUGGGAUCCA: the self-cleavage was 0.456. The value for GGCCGGCAUGGUCCCAGCCUCCUCGCUGGCGCCGGCUGGGGAACAUUCCGAGGGGACCGUCCCCUCGGUAAUGUCGAAUGGGACCCA was 0.47; that for GGCCGGCAUGGUCCCAGCCUCCUCGCUGGCGCCGGCUGGGGAACAUUCCGAGGGGACCGUCCCCUCGGUAAUGACGAAUGGGACCCA was 0.486. GGCCGGCAUGGUCCCAGCCUCCUCGCUGGCGCCGGCUGGGGAACAUUCCGAGGGGACCGUCCCCUCGGUAAUGCCGAAUGGGACCCA: the self-cleavage was 0.119. Regarding GGCCGGCAUGGUCCCAGCCUCCUCGCUGGCGCCGGCUGGGGAACAUUCCGAGGGGACCAUCCCCUCGGUAAUGGCGAAUGGGACCCA, the self-cleavage worked out at 0.758. For the variant GGCCGGCAUGGUCCCAGCCUCCUCGCUGGCGCCGGCUGGGGAACAUUCCGAGGGGACCCUCCCCUCGGUAAUGGCGAAUGGGACCCA, the self-cleavage was 0.919. Take GGCCGGCAUGGUCCCAGCCUCCUCGCUGGCGCCGGCUGGGGAACAUUCCGAGGGGACCGUCCCCUCGGUAAUGGCGAAUGGGACACA: the self-cleavage is 0.617.

For the variant GGCCGGCAUGGUCCCAGCCUCCUCGCUGGCGCCGGCUGGGGAACAUUCCGACGGGACCGUCCCCUCGGUAAUGGCGAAUGGGACCCA, the self-cleavage was found to be 0.509. Take GGCCGGCAUGGUCCCAGCCUCCUCGCUGGCGCCGGCUGGGGAACAUUCCGAGGAGACCGUCCCCUCGGUAAUGGCGAAUGGGACCCA: the self-cleavage amounted to 0.831. The value for GGCCGGCAUGGUCCCAGCCUCCUCGCUGGCGCCGGCUGGGGAACAUUCCGAGGGGACCGUCCCCUCGGUAAUGGCGAAUGGGACCAA was 1.14.

Regarding GGCCGGCAUGGUCCCAGCCUCCUCGCUGGCGCCGGCUGGGGAACAUUCCGAGGGGACCGUCCCCUCGGUAAUGGCGAAUGGGACCGA, the self-cleavage is 0.914. The figure for GGCCGGCAUGGUCCCAGCCUCCUCGCUGGCGCCGGCUGGGUCACAUUCCGAGGGGACCGUCCCCUCGGUAAUGGCGAAUGGGACCCA is 0.519.

As for GGCCGGCAUGGUCCCAGCCUCCUCGCUGGCGCCGGCUGGGUUACAUUCCGAGGGGACCGUCCCCUCGGUAAUGGCGAAUGGGACCCA, the self-cleavage was determined as 0.831.

In the case of GGCCGGCAUGGUCCCAGCCUCCUCGCUGGCGCCGGCUGGGUGACAUUCCGAGGGGACCGUCCCCUCGGUAAUGGCGAAUGGGACCCA, the self-cleavage amounted to 0.872. With GGCCGGCAUGGUCCCAGCCUCCUCGCUGGCGCCGGCUGGGGAACAUUCCGAGGGGACGGUCCCCUCGGUAAUGGCGAAUGGGACCCA, the self-cleavage was determined as 0.974. As for GGCCGGCAUGGUCCCAGCCUCCUCGCUGGCGCCGGCUGGGGAACAUCCCGAGGGGACCGUCCCCUCGGUAAUGGCGAAUGGGACCCA, the self-cleavage is 0.633. GGCCGGCAUGGUCCCAGCCUCCUCGCUGGCGCCGGCUGGGGAACAUGCCGAGGGGACCGUCCCCUCGGUAAUGGCGAAUGGGACCCA: the self-cleavage is 0.598. On to GGCCGGCAUGGUCCCAGCCUCCUCGCUGGCGCCGGCUGGGGAACAUUCCGAGGGGACCGUCCCCUCGGUAAUGGCGAAUGGGACCCU, for which the self-cleavage is 0.788. The value for GGCCGGCAUGGUCCCAGCCUCCUCGCUGGCGCCGGCUGGGGAACAUUCCGAGGGGACCGUCCCCUCGGUAAUGGCGAAUGGGUCCCA was 0.77. In the case of GGCCGGCAUGGUCCCAGCCUCCUCGCUGGCGCCGGCUGGGGAACAUUCCGAGGGGACCGUCCCCUCGGGAAUGGCGAAUGGGACCCA, the self-cleavage was determined as 0.755. GGCCGGCAUGGUCCCAGCCUCCUCGCUGGCGCCGGCUGGGGAACAUUCCGAGGGGACCGUCCCCUCCGUAAUGGCGAAUGGGACCCA: the self-cleavage turned out to be 0.678. Consider GGCCGGCAUGGUCCCAGCCUCCUCGCUGGCGCCGGCUGGGGAACAUUCCGAGGGGACCGUCCCCUCUGUAAUGGCGAAUGGGACCCA, for which the self-cleavage came to 0.48. For the variant GGCCGGCAUGGUCCCAGCCUCCUCGCUGGCGCCGGCUGGGGAACAUUCCGAGGGGACCGUCCCCUGGGUAAUGGCGAAUGGGACCCA, the self-cleavage is 0.831. Consider GGCCGGCAUGGUCCCAGCCUCCUCGCUGGCGCCGGCUGGGGAACAUUCCGAGGGGACCGUCCCCUAGGUAAUGGCGAAUGGGACCCA, for which the self-cleavage is 0.96. For the variant GGCCGGCAUGGUCCCAGCCUCCUCGCUGGCGCCGGCUGGGGAACAUUCCGAGGGGACCGUCGCCUCGGUAAUGGCGAAUGGGACCCA, the self-cleavage came to 0.252.

On to GGCCGGCAUGGUCCCAGCCUCCUCGCUGGCGCCGGCUGGGGAACACUCCGAGGGGACCGUCCCCUCGGUAAUGGCGAAUGGGACCCA, for which the self-cleavage was 0.297.

Take GGCCGGCAUGGUCCCAGCCUCCUCGCUGGCGCCGGCUGGGGAACAAUCCGAGGGGACCGUCCCCUCGGUAAUGGCGAAUGGGACCCA: the self-cleavage stood at 0.293. On to GGCCGGCAUGGUCCCAGCCUCCUCGCUGGCGCCGGCUGGGGAACAUUCCGAGGGGACCGUCCCCUCGGUAAUGGCGAACGGGACCCA, for which the self-cleavage was 0.35. As for GGCCGGCAUGGUCCCAGCCUCCUCGCUGGCGCCGGCUGGGGAACAUUCCGAGGGGACCGUCCCCUCGGUAAUGGCGAAAGGGACCCA, the self-cleavage is 0.59. For the variant GGCCGGCAUGGUCCCAGCCUCCUCGCUGGCGCCGGCUGGGGAACAUUCCGAGGGGACCGUCCCCUCGGUAAUGGCGAAGGGGACCCA, the self-cleavage turned out to be 0.302.
